# Test results taken from the supplement of paper PMC10567573.
# B1: FBXO34 (parent)
# chain: ASSVESTLPVLEASSWKKQVSHDF
# B2: EHMT1 (parent)
# chain: SARQGELQKVLLMLVDGIDPNFKM
# Variants of: B1
# Assay: protein stability index of a GFP-peptide fusion (GPS, HEK-293T) (PSI 1-6); higher = more stable
# Details: c terminus: a fixed tail appended
# 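Note: lentivirally expressed fusions sorted by FACS into six bins by GFP to DsRed ratio, PSI derived from sequencing read proportions per bin multiplied by bin number.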
row,Variant,protein stability index
1,ASSVESTLPVLEASSWKKQVAHDF,3.31
2,ASSVESTLPVLEASSWKKQVGHDF,2.79
3,ASSVESTLPVLEASSWKKQVYHDF,2.97
4,ASSVESTLPVLEASSWKKQVDHDF,4.89
5,ASSVESTLPVLEASSWKKQVNHDF,3.64
6,ASSVESTLPVLEASSWKKQVPHDF,3.87
7,ASSVESTLPVLEASSWKKQVCHDF,2.72
8,ASSVESTLPVLEASSWKKQVFHDF,2.89
9,ASSVESTLPVLEASSWKKQVVHDF,3.65
10,ASSVESTLPVLEASSWKKQVHHDF,3.58
11,ASSVESTLPVLEASSWKKQVMHDF,3
12,ASSVESTLPVLEASSWKKQVKHDF,3.26
13,ASSVESTLPVLEASSWKKQVEHDF,2.76
14,ASSVESTLPVLEASSWKKQVTHDF,3.61
15,ASSVESTLPVLEASSWKKQVQHDF,3.08
16,ASSVESTLPVLEASSWKKQESHDF,4.85
17,ASSVESTLPVLEASSWKKQISHDF,3.69
18,ASSVESTLPVLEASSWKKQKSHDF,4.3
19,ASSVESTLPVLEASSWKKQMSHDF,4.34
20,ASSVESTLPVLEASSWKKQHSHDF,4.6
21,ASSVESTLPVLEASSWKKQPSHDF,4.04
22,ASSVESTLPVLEASSWKKQLSHDF,3.55

row,Variant,protein stability index
1,ASSVESTLPVLEASSWKKQGSHDF,4.09
2,ASSVESTLPVLEASSWKKQYSHDF,3.5
3,ASSVESTLPVLEASSWKKQWSHDF,2.47
4,ASSVESTLPVLEASSWKKQDSHDF,4.84
5,ASSVESTLPVLEASSWKKQRSHDF,4.22
6,ASSVESTLPVLEASSWKKQQSHDF,4.01
7,ASSVESTLPVLEASSWKKQFSHDF,3.72
8,ASSVESTLPVLEASSWKKQCSHDF,3.44
9,ASSVESTLPVLEASSWKKQNSHDF,4.13
10,ASSVESTLPVLEASSWKKQASHDF,3.91
11,ASSVESTLPVLEASSWKKQTSHDF,4.29
12,ASSVESTLPVLEASSWKKQVSHDR,4.53
13,ASSVESTLPVLEASSWKKQVSHDY,3
14,ASSVESTLPVLEASSWKKQVSHDS,4.33
15,ASSVESTLPVLEASSWKKQVSHDH,3.98
16,ASSVESTLPVLEASSWKKQVSHDW,2.45
17,ASSVESTLPVLEASSWKKQVSHDQ,4.25
18,ASSVESTLPVLEASSWKKQVSHDA,3.78
19,ASSVESTLPVLEASSWKKQVSHDT,3.77
20,ASSVESTLPVLEASSWKKQVSHDG,2.98
21,ASSVESTLPVLEASSWKKQVSHDC,3.49
22,ASSVESTLPVLEASSWKKQVSHDV,3.83

row,Variant,protein stability index
1,ASSVESTLPVLEASSWKKQVSHDL,2.31
2,ASSVESTLPVLEASSWKKQVSHDI,2.19
3,ASSVESTLPVLEASSWKKQVSHDM,3
4,ASSVESTLPVLEASSWKKQVSHDK,4.79
5,ASSVESTLPVLEASSWKKQVSHDP,4.26
6,ASSVESTLPVLEASSWKKQVSHDN,4.25
7,ASSVESTLPVLEASSWKRQVSHDF,3.15
8,ASSVESTLPVLEASSWKHQVSHDF,2.39
9,ASSVESTLPVLEASSWKLQVSHDF,2.83
10,ASSVESTLPVLEASSWKTQVSHDF,2.95
11,ASSVESTLPVLEASSWKWQVSHDF,2.58
12,ASSVESTLPVLEASSWKSQVSHDF,3.72
13,ASSVESTLPVLEASSWKMQVSHDF,1.5
14,ASSVESTLPVLEASSWKQQVSHDF,2.69
15,ASSVESTLPVLEASSWKFQVSHDF,1.8
16,ASSVESTLPVLEASSWKPQVSHDF,2.99
17,ASSVESTLPVLEASSWKVQVSHDF,2.53
18,ASSVESTLPVLEASSWKEQVSHDF,1.38
19,ASSVESTLPVLEASSWKCQVSHDF,2.11
20,ASSVESTLPVLEASSWKIQVSHDF,2.37
21,ASSVESTLPVLEASSWKGQVSHDF,3.49
22,ASSVESTLPVLEASSWKAQVSHDF,2.21

row,Variant,protein stability index
1,ASSVESTLPVLEASSWKNQVSHDF,2.94
2,ASSVESTLPVLEASSWKYQVSHDF,2.44
3,ASSVESTLPVLEASSWKDQVSHDF,1.88
4,ASSVESTLPVLEASGWKKQVSHDF,3.65
5,ASSVESTLPVLEASTWKKQVSHDF,3.07
6,ASSVESTLPVLEASHWKKQVSHDF,3.24
7,ASSVESTLPVLEASLWKKQVSHDF,3.4
8,ASSVESTLPVLEASKWKKQVSHDF,3.92
9,ASSVESTLPVLEASDWKKQVSHDF,4.01
10,ASSVESTLPVLEASRWKKQVSHDF,3.81
11,ASSVESTLPVLEASAWKKQVSHDF,3.05
12,ASSVESTLPVLEASQWKKQVSHDF,3.44
13,ASSVESTLPVLEASNWKKQVSHDF,2.88
14,ASSVESTLPVLEASYWKKQVSHDF,2.99
15,ASSVESTLPVLEASIWKKQVSHDF,4.11
16,ASSVESTLPVLEASMWKKQVSHDF,3.5
17,ASSVESTLPVLEASWWKKQVSHDF,2.38
18,ASSVESTLPVLEASFWKKQVSHDF,2.75
19,ASSVESTLPVLEASPWKKQVSHDF,3.61
20,ASSVESTLPVLEASVWKKQVSHDF,2.84

# Variants of: B2
# Assay: as above
# Details: c terminus: a fixed tail appended
row,Variant,protein stability index
1,FARQGELQKVLLMLVDGIDPNFKM,1.97
2,DARQGELQKVLLMLVDGIDPNFKM,1.18
3,CARQGELQKVLLMLVDGIDPNFKM,2.34
4,HARQGELQKVLLMLVDGIDPNFKM,2.42
5,KARQGELQKVLLMLVDGIDPNFKM,2.31
6,EARQGELQKVLLMLVDGIDPNFKM,1.66
7,GARQGELQKVLLMLVDGIDPNFKM,2.05
8,IARQGELQKVLLMLVDGIDPNFKM,1.39
